Laboratory results as given in PMC7614784, “Structure and function of the RAD51B-RAD51C-RAD51D-XRCC2 tumour suppressor” (Nature, 2023).

Columns and labels:
Settings in all cases: protein: recombinant; tags: N-terminal TwinStrep-TEV on XRCC2, cleaved; copies: 1;1;1;1; label: 5'-FAM
B(R217A)CDX2 = target: T1, B(R217A)CDX2 (Homo sapiens, UniProt O15315;O43502;O75771;O43543 1-345;1-376;1-328;1-280, R217A); assay: fluorescence anisotropy; 1 mM ATP; similar to WT; FA: protein in 25 mM HEPES pH 7.5, 10% glycerol, 2.5 mM MgCl2, 0.25 mM TCEP, 150 mM NaCl mixed 1:1 with oligo in HMT buffer, 50 mM NaCl (final ~100 mM NaCl, 5%)
T1 sequence 1: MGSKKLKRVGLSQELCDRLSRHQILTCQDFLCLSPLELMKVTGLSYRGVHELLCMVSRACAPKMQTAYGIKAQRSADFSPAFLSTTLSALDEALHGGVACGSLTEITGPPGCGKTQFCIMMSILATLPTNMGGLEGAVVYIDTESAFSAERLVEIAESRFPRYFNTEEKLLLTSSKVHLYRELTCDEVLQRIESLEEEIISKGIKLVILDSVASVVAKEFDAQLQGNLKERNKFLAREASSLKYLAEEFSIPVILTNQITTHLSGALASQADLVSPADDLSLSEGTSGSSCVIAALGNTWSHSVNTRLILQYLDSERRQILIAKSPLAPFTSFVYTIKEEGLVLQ
T1 sequence 2: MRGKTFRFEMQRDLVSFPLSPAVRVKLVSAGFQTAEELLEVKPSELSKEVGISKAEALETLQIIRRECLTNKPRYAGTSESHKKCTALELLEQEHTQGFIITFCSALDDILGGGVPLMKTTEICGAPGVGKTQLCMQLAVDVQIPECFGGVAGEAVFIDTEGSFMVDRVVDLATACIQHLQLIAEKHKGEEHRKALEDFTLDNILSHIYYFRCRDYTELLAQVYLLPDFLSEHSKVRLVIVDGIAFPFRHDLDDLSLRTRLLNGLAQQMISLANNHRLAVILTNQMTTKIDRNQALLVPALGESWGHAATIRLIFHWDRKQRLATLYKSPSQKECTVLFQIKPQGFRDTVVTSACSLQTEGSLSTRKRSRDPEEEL
T1 sequence 3: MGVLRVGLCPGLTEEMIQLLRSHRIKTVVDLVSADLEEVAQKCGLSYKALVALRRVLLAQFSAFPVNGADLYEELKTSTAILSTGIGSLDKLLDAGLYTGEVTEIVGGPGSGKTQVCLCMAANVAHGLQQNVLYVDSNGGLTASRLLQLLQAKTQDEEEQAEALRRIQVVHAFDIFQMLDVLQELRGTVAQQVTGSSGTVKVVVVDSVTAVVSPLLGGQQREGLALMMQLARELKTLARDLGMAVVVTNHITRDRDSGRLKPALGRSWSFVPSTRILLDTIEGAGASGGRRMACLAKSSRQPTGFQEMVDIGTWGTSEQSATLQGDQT
T1 sequence 4: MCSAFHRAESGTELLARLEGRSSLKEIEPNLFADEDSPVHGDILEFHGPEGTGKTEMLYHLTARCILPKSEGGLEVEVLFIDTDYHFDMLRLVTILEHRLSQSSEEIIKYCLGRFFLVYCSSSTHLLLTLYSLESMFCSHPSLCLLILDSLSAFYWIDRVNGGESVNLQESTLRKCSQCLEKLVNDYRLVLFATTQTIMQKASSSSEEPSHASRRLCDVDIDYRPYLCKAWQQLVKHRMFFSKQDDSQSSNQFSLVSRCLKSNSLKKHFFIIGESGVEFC

B(R231A)CDX2 = target: T2, B(R231A)CDX2 (Homo sapiens, UniProt O15315;O43502;O75771;O43543 1-345;1-376;1-328;1-280, R231A); assay: as above
T2 sequence 1: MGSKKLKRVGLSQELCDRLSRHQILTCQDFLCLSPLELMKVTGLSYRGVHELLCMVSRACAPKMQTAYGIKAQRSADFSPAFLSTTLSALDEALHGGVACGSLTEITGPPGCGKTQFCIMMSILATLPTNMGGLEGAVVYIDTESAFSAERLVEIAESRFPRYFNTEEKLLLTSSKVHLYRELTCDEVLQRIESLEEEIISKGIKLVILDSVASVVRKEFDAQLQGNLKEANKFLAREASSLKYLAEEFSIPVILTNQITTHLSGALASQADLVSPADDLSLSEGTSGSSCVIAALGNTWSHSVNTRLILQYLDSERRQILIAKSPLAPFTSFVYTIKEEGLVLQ
T2 sequence 2: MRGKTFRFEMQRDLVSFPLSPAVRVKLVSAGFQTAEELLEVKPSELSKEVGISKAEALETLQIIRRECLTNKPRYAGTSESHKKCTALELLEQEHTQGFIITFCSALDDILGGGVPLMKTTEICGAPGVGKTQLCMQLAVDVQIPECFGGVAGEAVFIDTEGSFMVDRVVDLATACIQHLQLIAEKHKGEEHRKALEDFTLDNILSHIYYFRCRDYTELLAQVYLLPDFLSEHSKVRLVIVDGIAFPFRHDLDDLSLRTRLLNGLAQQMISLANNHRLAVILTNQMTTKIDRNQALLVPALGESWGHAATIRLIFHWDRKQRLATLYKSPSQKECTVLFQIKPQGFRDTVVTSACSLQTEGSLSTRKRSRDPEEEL
T2 sequence 3: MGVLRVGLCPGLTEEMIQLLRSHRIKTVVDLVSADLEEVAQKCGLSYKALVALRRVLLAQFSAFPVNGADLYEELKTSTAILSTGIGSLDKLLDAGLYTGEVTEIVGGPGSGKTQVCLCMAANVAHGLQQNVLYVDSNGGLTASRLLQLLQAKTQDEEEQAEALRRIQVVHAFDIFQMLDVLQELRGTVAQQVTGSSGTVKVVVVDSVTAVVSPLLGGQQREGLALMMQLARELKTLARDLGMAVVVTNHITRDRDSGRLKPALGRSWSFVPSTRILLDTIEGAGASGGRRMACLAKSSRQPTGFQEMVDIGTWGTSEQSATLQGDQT
T2 sequence 4: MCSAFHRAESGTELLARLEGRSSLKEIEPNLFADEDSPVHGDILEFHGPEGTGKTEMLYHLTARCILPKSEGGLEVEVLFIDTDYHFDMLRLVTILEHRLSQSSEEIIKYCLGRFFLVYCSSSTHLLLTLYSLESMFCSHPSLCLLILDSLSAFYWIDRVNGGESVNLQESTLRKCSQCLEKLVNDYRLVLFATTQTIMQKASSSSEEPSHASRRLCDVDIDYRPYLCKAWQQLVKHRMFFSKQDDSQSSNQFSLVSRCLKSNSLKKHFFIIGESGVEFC

BCD(R221A)X2 = target: T3, BCD(R221A)X2 (Homo sapiens, UniProt O15315;O43502;O75771;O43543 1-345;1-376;1-328;1-280, R221A); assay: fluorescence anisotropy; 1 mM ATP; minimal effect; FA: protein in 25 mM HEPES pH 7.5, 10% glycerol, 2.5 mM MgCl2, 0.25 mM TCEP, 150 mM NaCl mixed 1:1 with oligo in HMT buffer, 50 mM NaCl (final ~100 mM NaCl, 5%)
T3 sequence 1: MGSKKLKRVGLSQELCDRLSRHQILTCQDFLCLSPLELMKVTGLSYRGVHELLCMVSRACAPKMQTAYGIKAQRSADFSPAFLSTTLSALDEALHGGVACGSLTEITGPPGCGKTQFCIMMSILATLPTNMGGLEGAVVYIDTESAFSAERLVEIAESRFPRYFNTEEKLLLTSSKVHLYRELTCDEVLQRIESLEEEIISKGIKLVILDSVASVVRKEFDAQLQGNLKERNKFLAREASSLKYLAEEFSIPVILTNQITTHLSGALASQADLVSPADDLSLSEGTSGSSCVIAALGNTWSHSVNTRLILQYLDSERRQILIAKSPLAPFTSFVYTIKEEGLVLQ
T3 sequence 2: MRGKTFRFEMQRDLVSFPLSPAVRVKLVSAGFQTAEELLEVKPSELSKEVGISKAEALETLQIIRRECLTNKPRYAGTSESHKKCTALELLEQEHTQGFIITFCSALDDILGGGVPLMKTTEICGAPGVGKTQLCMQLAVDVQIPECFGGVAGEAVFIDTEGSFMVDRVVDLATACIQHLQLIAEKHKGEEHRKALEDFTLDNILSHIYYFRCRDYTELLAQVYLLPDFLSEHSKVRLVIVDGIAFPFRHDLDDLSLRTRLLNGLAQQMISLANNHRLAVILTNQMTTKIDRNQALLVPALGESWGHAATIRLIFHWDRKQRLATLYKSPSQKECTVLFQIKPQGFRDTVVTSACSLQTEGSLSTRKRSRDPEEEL
T3 sequence 3: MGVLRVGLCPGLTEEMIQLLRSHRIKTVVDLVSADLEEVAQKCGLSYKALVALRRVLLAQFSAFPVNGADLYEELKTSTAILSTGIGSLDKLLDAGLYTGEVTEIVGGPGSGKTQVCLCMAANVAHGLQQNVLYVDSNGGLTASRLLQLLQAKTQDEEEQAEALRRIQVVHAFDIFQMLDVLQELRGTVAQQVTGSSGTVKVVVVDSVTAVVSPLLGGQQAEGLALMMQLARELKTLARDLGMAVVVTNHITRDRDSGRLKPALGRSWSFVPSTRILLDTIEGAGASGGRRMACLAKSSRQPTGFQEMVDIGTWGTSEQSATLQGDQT
T3 sequence 4: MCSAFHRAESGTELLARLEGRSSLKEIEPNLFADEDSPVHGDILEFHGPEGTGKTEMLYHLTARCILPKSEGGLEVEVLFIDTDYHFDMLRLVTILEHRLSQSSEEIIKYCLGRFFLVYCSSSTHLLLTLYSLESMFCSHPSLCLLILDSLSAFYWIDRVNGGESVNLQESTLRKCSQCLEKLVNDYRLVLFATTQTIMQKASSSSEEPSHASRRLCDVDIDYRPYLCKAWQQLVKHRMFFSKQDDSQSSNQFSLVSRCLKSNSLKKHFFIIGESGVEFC

Measured: binding result

TATCGAATCCGTCTA (ssDNA) [FAM-dN15nt]
binds: all assays above
